Target: ribosomal protein S6, P62754

B1: hp70S6K (delC/T389E), constitutively active form of human p70S6K protein (protein)
chain: MAGVFDIDLDQPEDAGSEDELEEGGQLNESMDHGGVGPYELGMEHCEKFEISETSVNRGPEKIRPECFELLRVLGKGGYGKVFQVRKVTGANTGKIFAMKVLKKAMIVRNAKDTAHTKAERNILEEVKHPFIVDLIYAFQTGGKLYLILEYLSGGELFMQLEREGIFMEDTACFYLAEISMALGHLHQKGIIYRDLKPENIMLNHQGHVKLTDFGLCKESIHDGTVTHTFCGTIEYMAPEILMRSGHNRAVDWWSLGALMYDMLTGAPPFTGENRKKTIDKILKCKLNLPPYLTQEARDLLKKLLKRNAASRLGAGPGDAGEVQAHPFFRHINWEELLARKVEPPFKPLLQSEEDVSQFDSKFTRQTPVDSPDDSTLSESANQVFLGFEYVAPSVLES
With B1 the “phosphorylation of ribosomal protein S6 (immunoperoxidase staining of SN sections after AAV transduction)” value was “hp70S6K(CA) induces a detectable increase in phosphorylation of ribosomal protein S6”.

Reference: patent US20140100265
